Test results published in publication doi:10.64898/2025.12.30.697132.
Where two headings read alike, the source gives them in different places.

Legend:
XCL1 R23A,R43A (human) [1] = biological target: XCL1 R23A,R43A (human) (UniProt P47992); test: 19F NMR
XCL1 R23A,R43A (human) [2] = biological target: XCL1 R23A,R43A (human) (UniProt P47992); test: 19F NMR; remark: listed apart in the source

percent of the protein in the dimer fold (XCL1 R23A,R43A (human) [1]): 26%
percent of the protein in the dimer fold (XCL1 R23A,R43A (human) [2]): 20%
Substance: XCL1 R23A,R43A (from UniProt P47992 22-93) (domain or fragment)
